In the RNAGym collection of RNA variant scans (doi:10.7554/elife.80360):

B1: HDV Ribozyme (parent)
chain: GGCCGGCAUGGUCCCAGCCUCCUCGCUGGCGCCGGCUGGGCAACAUUCCGAGGGGACCGUCCCCUCGGUAAUGGCGAAUGGGACCCA

Variants of: B1
Test: self-cleavage, relative activity (ratio to wild type); higher = more cleavage; co-transcriptional

Row | Variant | self-cleavage
1 | A8C U79C | 0.181
2 | A8C U79G | 0.462
3 | A8G A16G | 1.14
4 | A8C C22G | 0.0791
5 | A8U G53A | 0.665
6 | A8U G53U | 0.867
7 | A8G G67A | 0.755
8 | A8G C75U | 0.133
9 | A8G C75G | 0.525
10 | A8U G80A | 0.227
11 | A8C G76U | 0.785
12 | A8C G76A | 0.95
13 | A8U G74C | 0.166
14 | A8G G17A | 0.629
15 | A8G G17C | 0.0519
16 | A8U C49U | 0.739
17 | A8U C49G | 0.76
18 | A8U C49A | 1.13
19 | A8G G53A | 1.04
20 | A8G G53U | 1.02
21 | A8G U69G | 1.19
22 | A8G U69C | 1.16
23 | A8C G35C | 0
24 | A8C G35U | 0.269

Row | Variant | self-cleavage
25 | A8C U47A | 0.519
26 | A8G C84U | 0.864
27 | A8G C84G | 0.396
28 | A8G G74C | 0.0639
29 | A8G G74A | 0.256
30 | A8G C57U | 1.16
31 | A8G C57G | 1.27
32 | A8U A87U | 0.963
33 | A8U C86A | 0.997
34 | A8U C18A | 0.0554
35 | A8U C18G | 0.172
36 | A8U C18U | 0.631
37 | A8U C21U | 0.147
38 | A8U C21G | 0.119
39 | A8G A77U | 0.0978
40 | A8G A77G | 0.867
41 | A8C G73C | 0.115
42 | A8U G81A | 0.148
43 | A8G U12A | 0
44 | A8G U12C | 0.151
45 | A8G G82A | 0.237
46 | A8G C66G | 0.969
47 | A8G C66A | 0.886
48 | A8C U65C | 0.684

Row | Variant | self-cleavage
49 | A8C U65G | 0.985
50 | A8C U65A | 0.76
51 | A8U C63A | 0.415
52 | A8G C61U | 0.982
53 | A8U A42U | 0.314
54 | A8G G31C | 0.145
55 | A8G G31A | 0.415
56 | A8G G31U | 0.587
57 | A8U G38A | 0.141
58 | A8U G38U | 0.326
59 | A8U G38C | 0.095
60 | A8G A42U | 0.317
61 | A8G A42G | 0.68
62 | A8G G39A | 0.302
63 | A8G G39U | 0.54
64 | A8C G29U | 0.151
65 | A8C G29C | 0
66 | A8C G29A | 0.18
67 | A8C C86A | 0.72
68 | A8C C86U | 0.862
69 | A8C C13A | 0.266
70 | A8C C13U | 0.356
71 | A8U C13U | 0.302
72 | A8C G11C | 0.151

Row | Variant | self-cleavage
73 | A8C G11A | 0.229
74 | A8U G52U | 0.872
75 | A8U G52A | 0.692
76 | A8C C62A | 0.918
77 | A8C C62G | 0.475
78 | A8C G68A | 0.554
79 | A8C G68U | 0.943
80 | A8G A71C | 0.447
81 | A8G A71U | 0.902
82 | A8G A71G | 0.739
83 | A8G G25C | 0.175
84 | A8G G25A | 0.0639
85 | A8G C49G | 1.27
86 | A8G C49U | 0.692
87 | A8G U46C | 0.782
88 | A8U G50U | 0.848
89 | A8U G50C | 0.939
90 | A8U C36A | 0.0811
91 | A8U C36G | 0.125
92 | A8U C36U | 0.554
93 | A8C C24U | 0.396
94 | A8C C24A | 0.434
95 | A8C G81U | 0.201
96 | A8C G81C | 0.166

Row | Variant | self-cleavage
97 | A8G G59A | 0.743
98 | A8U A78U | 0.128
99 | A8U A78G | 0.388
100 | A8U C41A | 0.443
101 | A8C U27G | 0.88
102 | A8C U27C | 0.739
103 | A8C C57A | 0.89
104 | A8C C66G | 0.997
105 | A8C C66U | 0.76
106 | A8C G50U | 0.864
107 | A8C G50C | 1.04
108 | A8U G59C | 1.02
109 | A8U G59A | 0.79
110 | A8U G67C | 0.718
111 | A8U G76C | 0.965
112 | A8C C36A | 0
113 | A8C C36G | 0
114 | A8G A78U | 0.266
115 | A8G A78C | 0.166
116 | A8G G68U | 0.855
117 | A8U G31C | 0.115
118 | A8U C57U | 0.91
119 | A8C C33U | 0.554
120 | A8C C33A | 0.0504

Row | Variant | self-cleavage
121 | A8C A56G | 0.939
122 | A8C C49U | 0.567
123 | A8C C49G | 0.475
124 | A8U A77C | 0.0665
125 | A8U A77U | 0.0898
126 | A8U A77G | 0.779
127 | A8G C30A | 0.237
128 | A8G C30G | 0.128
129 | A8G C30U | 0.806
130 | A8C A70C | 0.612
131 | A8C C48A | 1.35
132 | A8U C64A | 0.538
133 | A8U G55U | 0.635
134 | A8U G55A | 0.749
135 | A8G U9A | 0.506
136 | A8G U9C | 1.11
137 | A8C G67A | 0.898
138 | A8C G67U | 0.739
139 | A8C G67C | 0.623
140 | A8U C19U | 0.0308
141 | A8G C36G | 0.104
142 | A8U G25U | 0.106
143 | A8G U60C | 1.16
144 | A8G A51C | 0.962

Row | Variant | self-cleavage
145 | A8G A51U | 1.06
146 | A8U A16C | 0.831
147 | A8C U23G | 0.332
148 | A8G C24G | 0.0639
149 | A8G C24U | 0.665
150 | A8G C24A | 0.762
151 | A8U A56G | 0.957
152 | A8U A56U | 0.705
153 | A8U A56C | 1.25
154 | A8C A78G | 0.35
155 | A8C A78U | 0.119
156 | A8U G17C | 0.0755
157 | A8G G38C | 0.138
158 | A8C C19U | 0.0739
159 | A8C C19G | 0.115
160 | A8C U20C | 0
161 | A8G U37C | 1.22
162 | A8G C14A | 0.0791
163 | A8G C14U | 0.997
164 | A8C C30G | 0
165 | A8G G34U | 0.429
166 | A8G G34C | 0.0573
167 | A8G G34A | 0.095
